Laboratory results published in PMC11574045, “A cofactor-induced repressive type of transcription factor condensation can be induced by synthetic peptides to suppress tumorigenesis” (The EMBO Journal, 2024).

What follows are molecules tested on HEK293FT cells transfected with TF library (assay: Screening of TF condensates based on fluorescent puncta). Conditions: Figure 1B numerical data; TF library screen, one value per transcriptional factor.
Type: cell-based
Procedure: TF plasmids were automatically added to black-walled 384-well plates at 80 ng per well to reach a final concentration of 1.6 μg/ml. Polyethylenimine (PEI, Sigma) was then added to the plasmid-loaded plates at 240 ng per well (4.8 μg/ml). Subsequently, HEK293FT cells were seeded into the plate at 2000 cells per well. After 60 h, cells were cultured in medium with or without glucose for 12 h, and then fixed with 4% paraformaldehyde (PFA) at room temperature for 30 min. After three washes with PBS, fixed cells were permeabilized with 0.05% Triton X-100 for 15 min. Thereafter, cells were blocked with 5% BSA for 1 h, and then incubated overnight with anti-Flag (Sigma F3165, 1:200) and anti-GAL4 (Abbkine ABP57232, 1:200) primary antibodies at 4 °C. The cells were then gently washed with PBS, followed by being incubated with Alexa Fluor Plus 488 goat anti-mouse IgG secondary antibody (Thermo A32723, 1:400) or Alexa Fluor Plus 488 goat anti-rabbit IgG secondary antibody (Thermo A32731, 1:400) for 1 h. The plates were kept at 4 °C in the dark before being analyzed using an Opera System (Perkin Elmer). Fifty random fields per well were scanned and analyzed using the Columbus Plus Image Data Storage and Analysis System (Perkin Elmer).

Molecule | Z score of condensed fraction
DBX2 (protein, UniProt Q6ZNG2 1-339, looked up) Homeobox protein DBX2: MLPSAVAAHAGAYWDVVASSALLNLPAAPGFGNLGKSFLIENLLRVGGAPTPRLQPPAPHDPATALATAGAQLRPLPASPVPLKLCPAAEQVSPAGAPYGTRWAFQVLSPSADSARLPGRAPGDRDCTFQPSAPAPSKPFLLSTPPFYSACCGGSCRRPASSTAFPREESMLPLLTQDSNSKARRGILRRAVFSEDQRKALEKMFQKQKYISKTDRKKLAINLGLKESQVKIWFQNRRMKWRNSKEKEVLSNRCIQEVGLQEDPLSRSALGFPSPCPSIWDVPQQHSSPRWRENSPEPSERLIQESSGAPPPEANSLQGALYLCSEEEAGSKGVLTGAV | 2.182
DDIT3 (protein, UniProt P35638 1-169, looked up) DNA damage-inducible …: MAAESLPFSFGTLSSWELEAWYEDLQEVLSSDENGGTYVSPPGNEEEESKIFTTLDPASLAWLTEEEPEPAEVTSTSQSPHSPDSSQSSLAQEEEEEDQGRTRKRKQSGHSPARAGKQRMKEKEQENERKVAQLAEENERLKQEIERLTREVEATRRALIDRMVNLHQA | -1.245
DDX20 (protein, UniProt Q9UHI6 1-824, looked up) Probable ATP-dependent RNA …: MAAAFEASGALAAVATAMPAEHVAVQVPAPEPTPGPVRILRTAQDLSSPRTRTGDVLLAEPADFESLLLSRPVLEGLRAAGFERPSPVQLKAIPLGRCGLDLIVQAKSGTGKTCVFSTIALDSLVLENLSTQILILAPTREIAVQIHSVITAIGIKMEGLECHVFIGGTPLSQDKTRLKKCHIAVGSPGRIKQLIELDYLNPGSIRLFILDEADKLLEEGSFQEQINWIYSSLPASKQMLAVSATYPEFLANALTKYMRDPTFVRLNSSDPSLIGLKQYYKVVNSYPLAHKVFEEKTQHLQELFSRIPFNQALVFSNLHSRAQHLADILSSKGFPAECISGNMNQNQRLDAMAKLKHFHCRVLISTDLTSRGIDAEKVNLVVNLDVPLDWETYMHRIGRAGRFGTLGLTVTYCCRGEEENMMMRIAQKCNINLLPLPDPIPSGLMEECVDWDVEVKAAVHTYGIASVPNQPLKKQIQKIERTLQIQKAHGDHMASSRNNSVSGLSVKSKNNTKQKLPVKSHSECGIIEKATSPKELGCDRQSEEQMKNSVQTPVENSTNSQHQVKEALPVSLPQIPCLSSFKIHQPYTLTFAELVEDYEHYIKEGLEKPVEIIRHYTGPGDQTVNPQNGFVRNKVIEQRVPVLASSSQSGDSESDSDSYSSRTSSQSKGNKSYLEGSSDNQLKDSESTPVDDRISLEQPPNGSDTPNPEKYQESPGIQMKTRLKEGASQRAKQSRRNLPRRSSFRLQTEAQEDDWYDCHREIRLSFSDTYQDYEEYWRAYYRAWQEYYAAASHSYYWNAQRHPSWMAAYHMNTIYLQEMMHSNQ | 1.184
DDX17 (protein, UniProt Q92841 1-729, looked up) Probable ATP-dependent RNA …: MPTGFVAPILCVLLPSPTREAATVASATGDSASERESAAPAAAPTAEAPPPSVVTRPEPQALPSPAIRAPLPDLYPFGTMRGGGFGDRDRDRDRGGFGARGGGGLPPKKFGNPGERLRKKKWDLSELPKFEKNFYVEHPEVARLTPYEVDELRRKKEITVRGGDVCPKPVFAFHHANFPQYVMDVLMDQHFTEPTPIQCQGFPLALSGRDMVGIAQTGSGKTLAYLLPAIVHINHQPYLERGDGPICLVLAPTRELAQQVQQVADDYGKCSRLKSTCIYGGAPKGPQIRDLERGVEICIATPGRLIDFLESGKTNLRRCTYLVLDEADRMLDMGFEPQIRKIVDQIRPDRQTLMWSATWPKEVRQLAEDFLRDYTQINVGNLELSANHNILQIVDVCMESEKDHKLIQLMEEIMAEKENKTIIFVETKRRCDDLTRRMRRDGWPAMCIHGDKSQPERDWVLNEFRSGKAPILIATDVASRGLDVEDVKFVINYDYPNSSEDYVHRIGRTARSTNKGTAYTFFTPGNLKQARELIKVLEEANQAINPKLMQLVDHRGGGGGGGGRSRYRTTSSANNPNLMYQDECDRRLRGVKDGGRRDSASYRDRSETDRAGYANGSGYGSPNSAFGAQAGQYTYGQGTYGAAAYGTSSYTAQEYGAGTYGASSTTSTGRSSQSSSQQFSGIGRSGQQPQPLMSQQFAQPPGATNMIGYMGQTAYQYPPPPPPPPPSRK | 0.6597
